Experimental data as given in the supplement of paper PMC11780869.

Tested on: Bacillus subtilis
Experiment: cleaved RNA product abundance (RNA/gDNA barcode ratio) relative to median wild-type variant (ratio to wild type); higher = more accumulation of the downstream cleavage product
Conditions: cleavage site: cggR-gapA (positions -7 to +36 mutated)
Procedure: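 MPRA in B. subtilis. Mutagenized RNase Y cleavage-site regions (9% mutation rate) were inserted into a barcoded reporter mRNA (truncated aprE or tetM). Cells were grown in LB at 37°C to OD600 0.3. The cleaved RNA isoform was gel-purified and its barcodes counted; the RNA:gDNA barcode ratio was normalised to the median wild-type variant, and the median over barcodes is reported per variant. The printed sequence is the variable window only; the reporter flanks are not printed.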

[1] = experiment (reporter, strain, medium): exp 4a: truncated aprE reporter, strain BJT201 with 2% xylose (RNase J1 expressed)
[2] = experiment (reporter, strain, medium): exp 2b: truncated aprE reporter, strain BJT200

Sequence | cleaved RNA product abundance [1] | cleaved RNA product abundance [2]
ACAGACGAAGGAGCCGCAAACAAGTTATTAAGGGATGAATAATCCGTCAATATAAATATCTCTCACTTATTTAAA | 0.187 | –
ACAGACGAAGGAGCCGCAAACAAGTTATTAAGGGATGAATAATCTCTCAATATAAATATCTCTCACTTATTTAAA | 0.573 | 0.529
ACAGACGAAGGAGCCGCAAACAAGTTATTAAGGGATGAATAATGCCTCAATATAAATATCTCTCACTTATTTAAA | 0.0993 | –
ACAGACGAAGGAGCCGCAAACAAGTTATTAAGGGATGAATAATTCCTCAATATAAATATCTCTCACTTATTTAAA | 0.422 | –
ACAGACGAAGGAGCCGCAAACAAGTTATTAAGGGATGAATATTCCCTCAATATAAATATCTCTCACTTATTTAAA | 0.608 | –
ACAGACGAAGGAGCCGCAAACAAGTTATTAAGGGATGAATTATCCCTCAATATAAATATCTCTCACTTATTTAAA | – | 0.669
ACAGACGAAGGAGCCGCAAACAAGTTATTAAGGGATGACTAATCCCTCAATATAAATATCTCTCACTTATTTAAA | 0.522 | 0.557
ACAGACGAAGGAGCCGCAAACAAGTTATTAAGGGATGGATAATCCCTCAATATAAATATCTCTCACTTATTTAAA | 0.545 | –
ACAGACGAAGGAGCCGCAAACAAGTTATTAAGGGATGTATAATCCCTCAATATAAATATCTCTCACTTATTTAAA | 0.478 | –
ACAGACGAAGGAGCCGCAAACAAGTTATTAAGGGATTAATAATCCCTCAATATAAATATCTCTCACTTATTTAAA | 0.656 | 1.02
ACAGACGAAGGAGCCGCAAACAAGTTATTAAGGGCTGAATAATCCCTCAATATAAATATCTCTCACTTATTTAAA | 0.471 | –
ACAGACGAAGGAGCCGCAAACAAGTTATTAAGGGTTGAATAATCCCTCAATATAAATATCTCTCACTTATTTAAA | 0.183 | –
ACAGACGAAGGAGCCGCAAACAAGTTATTAAGGTATGAATAATCCCTCAATATAAATATCTCTCACTTATTTAAA | 0.0749 | 0.102
ACAGACGAAGGAGCCGCAAACAAGTTATTAAGTGATGAATAATCCCTCAATATAAATATCTCTCACTTATTTAAA | 0.0967 | 0.0954
ACAGACGAAGGAGCCGCAAACAAGTTATTAATGGATGAATAATCCCTCAATATAAATATCTCTCACTTATTTAAA | 0.112 | 0.0836
ACAGACGAAGGAGCCGCAAACAAGTTATTATGGGATGAATAATCCCTCAATATAAATATCTCTCACTTATTTAAA | 0.213 | –
ACAGACGAAGGAGCCGCAAACAAGTTATTCAGGGATGAATAATCCCTCAATATAAATATCTCTCACTTATTTAAA | – | 0.495
ACAGACGAAGGAGCCGCAAACAAGTTATTTAGGGATGAATAATCCCTCAATATAAATATCTCTCACTTATTTAAA | 0.67 | –
ACAGACGAAGGAGCCGCAAACAAGTTTTTAAGGGATGAATAATCCCTCAATATAAATATCTCTCACTTATTTAAA | 0.304 | 0.289
ACAGACGAAGGAGCCGCAAACAATTTATTAAGAGATGAATAATCCCTCAATATAAATATCTCTCACTTATTTAAA | 0.128 | –
ACAGACGAAGGAGCCGCAAACAATTTATTAAGGGATGAATAATCCCTCAATATAAATATCTCTCACTTATTTAAA | 0.756 | –
ACAGACGAAGGAGCCGCAAACACGTTATTAAGGGATGAATAATCCCTCAATATAAATATCTCTCACTTATTTAAA | 1.21 | –
ACAGACGAAGGAGCCGCAAACTAGTTATTAAGGGATGAATAATCCCTCAATATAAATATCTCTCACTTATTTAAA | 0.991 | –
ACAGACGAAGGAGCCGCAAAGAAAATATTAAGGGATGAATAATCCCTCAATATAAATATCTCTCACTTATTTAAA | 0.697 | –
ACAGACGAAGGAGCCGCAAAGAAACTATTAAGGGATGAATAATCCCTCAATATAAATATCTCTCACTTATTTAAA | 0.557 | 0.644
ACAGACGAAGGAGCCGCAAAGAAAGTTATTAAGGGATGAATAATCCCTCAATATAAATATCTCTCACTTATTTAA | 0.775 | –
